Measured values: patent US20110212476A1

Target: Gαi1 R178M/A326S (human)
Assay: cell-based or functional assay

Gαi1 R178M/A326S (human), sequence (B2RSH2 2-354 R178M/A326S): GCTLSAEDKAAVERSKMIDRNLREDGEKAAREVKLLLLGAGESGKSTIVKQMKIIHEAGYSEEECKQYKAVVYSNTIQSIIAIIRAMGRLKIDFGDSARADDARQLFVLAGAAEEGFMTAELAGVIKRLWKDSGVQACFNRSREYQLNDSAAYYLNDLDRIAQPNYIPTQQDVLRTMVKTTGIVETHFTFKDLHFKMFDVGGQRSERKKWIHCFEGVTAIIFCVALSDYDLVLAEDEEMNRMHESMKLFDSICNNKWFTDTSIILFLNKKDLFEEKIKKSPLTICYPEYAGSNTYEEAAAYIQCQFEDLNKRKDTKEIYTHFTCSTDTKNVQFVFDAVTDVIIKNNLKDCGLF

stimulation of GTPase activity: 8.8 fold
B1: RGS21 (wild type RGS domain) (protein)
chain: NMDTLLANQAGLDAFRIFLKSEFSEENVEFWLACEDFKKTKNADKIASKAKMIYSEFIEADAPKEINIDFGTRDLISKNIAEPTLKCFDEAQKLIYCLMAKDSFPRFLKSEIYKKLV
